Results published in publication PMC2111966.

Target: Acanthamoeba actin (Acanthamoeba)
Assay: co-sedimentation

Acanthamoeba actin (natural protein)
percent of soluble G-actin converted into an insoluble form: > 95%
